# Laboratory results reported in patent US20220411495A1, “POSITIVE ALLOSTERIC MODULATORS OF THE CALCIUM-SENSING RECEPTOR” (VIB VZW, priority 2019, published 2022).
# Molecular target: T1, human CaSR wild type (hCaSR WT) (Homo sapiens, UniProt P41180, E1011Q)
# T1 construct: mGlu5 signal peptide (N, cleaved yes); expressed in transfected cells
# T1 sequence (P41180 20-1078 E1011Q): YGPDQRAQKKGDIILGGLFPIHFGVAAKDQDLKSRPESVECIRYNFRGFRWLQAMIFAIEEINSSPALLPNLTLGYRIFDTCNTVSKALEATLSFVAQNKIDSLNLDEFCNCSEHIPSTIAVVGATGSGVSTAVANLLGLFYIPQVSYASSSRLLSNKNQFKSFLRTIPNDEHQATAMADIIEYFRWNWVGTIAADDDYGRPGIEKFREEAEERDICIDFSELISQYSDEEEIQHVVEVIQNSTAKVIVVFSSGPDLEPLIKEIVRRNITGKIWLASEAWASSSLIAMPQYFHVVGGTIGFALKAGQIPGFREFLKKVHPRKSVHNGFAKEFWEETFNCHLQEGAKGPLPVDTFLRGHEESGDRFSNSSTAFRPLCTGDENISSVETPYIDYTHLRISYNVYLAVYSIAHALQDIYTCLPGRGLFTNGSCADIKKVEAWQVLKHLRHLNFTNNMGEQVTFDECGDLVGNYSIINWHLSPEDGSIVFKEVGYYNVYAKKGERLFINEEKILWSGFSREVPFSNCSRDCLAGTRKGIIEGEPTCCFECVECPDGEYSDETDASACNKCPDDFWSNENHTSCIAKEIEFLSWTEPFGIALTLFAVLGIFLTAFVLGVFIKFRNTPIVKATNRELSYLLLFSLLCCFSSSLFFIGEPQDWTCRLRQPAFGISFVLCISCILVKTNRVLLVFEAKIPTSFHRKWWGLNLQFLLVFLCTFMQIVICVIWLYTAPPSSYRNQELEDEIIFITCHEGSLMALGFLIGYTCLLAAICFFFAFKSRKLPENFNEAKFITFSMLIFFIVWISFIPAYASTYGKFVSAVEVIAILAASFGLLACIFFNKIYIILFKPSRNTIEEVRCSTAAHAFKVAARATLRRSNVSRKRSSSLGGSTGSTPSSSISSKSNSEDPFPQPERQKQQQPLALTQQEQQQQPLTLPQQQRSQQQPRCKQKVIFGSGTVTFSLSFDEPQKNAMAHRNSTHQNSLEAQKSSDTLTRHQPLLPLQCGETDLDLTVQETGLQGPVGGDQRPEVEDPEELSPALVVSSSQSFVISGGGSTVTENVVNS
# Experiment: IP1 accumulation assay, Flp-In HEK293 HA-hCaSR WT cells
# Assay type: cell-based
# Details: for Effect on Ca2+ concentration-response curve (IP1): increasing concentrations of PAM; for PAM activity in IP1 accumulation screen: fixed nanobody concentration 5 μM, 30 min pre-incubation
# Protocol: Nanobodies were successfully purified by immobilized metal ion affinity chromatography (IMAC) and size exclusion chromatography (SEC) prior to pharmacological characterization (FIG. 1). Each nanobody was initially screened for Gq/11 activity in the Cisbio IP1 accumulation assay as this is the primary signaling pathway of CaSR (Chavez-Abiega et al., 2020). Whole HEK293 HA-hCaSR WT cells were pre-incubated for 30 minutes at 37° C. with a fixed nanobody concentration (5 μM) prior to stimulation with the endogenous ligand Ca^2+. The well characterized positive allosteric modulator (PAM) chemical NPS R-568 and negative allosteric modulator (NAM) chemical NPS 2143 were added as reference compounds. […] No nanobodies with agonist or NAM activity were observed when all nanobodies screened in the absence or in the presence of EC80 Ca^2+, respectively (FIGS. 4A and 4B). […] Except for CaSR Nb5, the same nanobodies acted as PAMs when ERK1/2 phosphorylation was measured in the presence of EC20 Ca^2+ (FIG. 2B). Again, none of the nanobodies elicited an agonist or NAM response (FIGS. 5B and 5C).
# All cell lines utilized in this study were grown at 37° C. and 5% CO2. The HEK293A (RRID: CVCL_6910) and stable Flp-In HEK293 cells were cultured in Dulbecco's Modified Eagle Medium (DMEM, #31966021) supplemented with 10% dialyzed Fetal Bovine Serum (dFBS) and 1% 10,000 units/mL penicillin and 10,000 μg/mL streptomycin mixture (pen/strep). The stable Flp-In CHO cells were cultured in F-12K medium (#21127022) supplemented with 10% dFBS and 1% pen/strep. Additionally, the stable Flp-In HEK293 and Flp-In CHO cell lines were cultured in the presence of respectively 200 and 500 μg/mL hygromycin B. For pharmacological characterization, Flp-In HEK293 HA-hCaSR WT cells were seeded in poly-D-lysine-coated clear 96 well tissue culture plates (Corning, Corning, N.Y., USA) at a density of 50,000 cells/well 18 h prior to assay. Experiments with HA-rCaSR WT and HA-hCaSR S170A required transient transfection of HEK293A cells 24 h prior to assay. DNA construct and Lipofectamine 2000 were diluted in Opti-MEM and mixed together after 5 minutes incubation at room temperature. For HA-rCaSR WT, 30 ng/well rCaSR DNA diluted in 25 μL/well Opti-MEM was mixed with 0.25 μL/well Lipofectamine 2000 in 25 μL/well Opti-MEM. For HA-hCaSR S170A, 40 ng/well […] DNA diluted in 25 μL/well Opti-MEM was mixed with 0.25 μL/well Lipofectamine 2000 in 25 μL/well Opti-MEM. The DNA:Lipofectamine 2000 mixtures were incubated 20 minutes at room temperature after which 50 μL/well was added to a poly-D-lysine-coated clear 96 well tissue culture plate. Next, 100 μL/well of a 400,000 cells/mL HEK293A cell solution prepared in culture media was added and the plate was placed at 37° C. and 5% CO2 (final cell density 40,000 cells/well).
# Inositol monophosphate (IP1) accumulation was measured using the commercially available HTRF® IP1 accumulation kit (Cisbio Bioassays, Codolet, France) and an EnVision multimode plate reader (PerkinElmer, Waltham, Mass., USA). Unless stated otherwise, the cells were washed once with 100 μL/well assay buffer and stimulated for 30 minutes at 37° C. with 50 μL/well ligand(s) diluted in assay buffer supplemented with 20 mM LiCl. Following stimulation, the cells were washed once with 100 μL/well and lysed for 30 minutes at room temperature with 30 μL/well lysis buffer provided with the kit. The lysed cells were diluted 1:2 with assay buffer after which 10 μL/well was pipetted to a white 384-well OptiPlate (PerkinElmer, Waltham, Mass., USA). Next, 10 μL of a detection solution consisting of 2.5% IP1-d2 conjugate and 2.5% anti-IP1 antibody diluted in assay buffer was added to each well. Fluorophore emissions were measured after the plate was stored in the dark for 1 h. The 615/665 nm emission ratios measured upon excitation at 340 nm were converted to IP1 concentrations with an IP1 standard curve according to the manufacturer's instructions.
# [1] = IP1 accumulation at EC20 Ca2+, three independent experiments in triplicate
Molecule,Effect on Ca2+ concentration-response curve (IP1),"Need for pre-incubation for PAM activity (IP1) (5 μM, with or without 30 minutes pre-incubation at 37° C., EC20 Ca2+)","IP1 accumulation in the absence of added Ca2+ (1:1 ratio, total 10 μM, alone = combined with inactive Nb7)","Max. response (fold over basal ± S.E.M.), human ortholog (IP1 accumulation at EC20 Ca2+) [fold over basal]","EC50 (IP1 accumulation at EC20 Ca2+, three independent experiments in triplicate, read-out: Potency (pEC50 ± S.E.M.), human ortholog (converted)) [nM]","Potency (pEC50 ± S.E.M.), human ortholog [1]",PAM activity in IP1 accumulation screen (EC20 Ca2+)
"C[C@@H](NCCCc1cccc(C(F)(F)F)c1)c1cccc2ccccc12 [cinacalcet, reference compound]",leftward shift,,,,,,
"COc1cccc([C@@H](C)NCCCc2ccccc2Cl)c1 [NPS R-568, reference compound]",,did not require pre-incubation,did not induce IP1 accumulation,3.89 ± 0.07,120,,
"Nb36: llama-derived CaSR-specific nanobody acting as PAM, SEQ ID NO:7 (protein, CaSR Nb36) VHH: QVQLVESGGGLVQAGESLRLSCAASGRTFSSYRMGWFRQGPGKEREFVAAITATGVRTYYADSVKGRFTISRDNAKNTVYLQMNSLQPDDTAVYLCAARRKAIFSVQQALTITDYDDWGQGTQVTVSS",,,,4.78 ± 0.21,,6.78 ± 0.17,potentiated IP1 accumulation
"Nb10: llama-derived CaSR-specific nanobody acting as PAM, SEQ ID NO:3 (protein, CaSR Nb10) VHH: QVQLVESGGGLVQPGDSLRVSCAASGGSFRSYAMAWFRQAPGKEREFVAAMSGTYGSTIYSDSMKGRFTISRDNAKKMVYLRMNSLRPEDTAVYYCAGYYSGAYYGTPKTDYTEYDSWGQGTQVTVSS",,,,3.36 ± 0.09,,6.33 ± 0.03,potentiated IP1 accumulation
"Nb5: llama-derived CaSR-specific nanobody, weakest PAM, SEQ ID NO:8 (protein, CaSR Nb5) VHH: QVQLVESGGRLVQDGGSLRLSCAASGLTFSDYSMGWFRQVPGKEREFVAVIRRSNDSTYYADFVKGRFTISRDNAKNTVYLQMNSLQPEDTAVYSCAADRGGVGLTSAQTYAYWGQGTQVTVSS",,,,1.88 ± 0.05,,,potentiated IP1 accumulation
"Nb11: llama-derived CaSR-specific nanobody acting as PAM, SEQ ID NO:6 (protein, CaSR Nb11) VHH: QVQLVESGGGLVQAGGSLRLSCAASGRTFSTYRMGWFRQGPGKEREFVAAITATGVKTYYTDSVKGRFTISRDNAKNTVYLQMNSVQPEDTAVYSCAARIKAIFTAQQAATITDYDYWGQGTQVTVSS",,,,3.50 ± 0.17,,6.28 ± 0.07,potentiated IP1 accumulation
"Nb2: llama-derived CaSR-specific nanobody acting as PAM, SEQ ID NO:9 (protein, CaSR Nb2) VHH: QVQLVESGGGLVQAGSSLRLSCAASGRTFSNYRMAWFRQAPGKEREFVAVISRGGGGADYADSVKGRFTISRDNVKNTVSLQMNSLKPEDTAVYFCAARISGFSYYTSVDRYDYWGQGTQVTVSS",,,,3.52 ± 0.21,,6.71 ± 0.08,potentiated IP1 accumulation
"Nb15: llama-derived CaSR-specific nanobody acting as PAM, SEQ ID NO:10 (protein, CaSR Nb15) VHH: QVQLVESGGGLVQAGGSLRLSCAASGRTFNNYHMAWFRQAPGKEREFAAAISRRAGTTYYADSVKGRFTISRDNAKNTVYLQMNSLKPEDTAVYYCAADPDTYGVSYLARKYDYWGQGTQVTVSS",,,,3.38 ± 0.36,,6.59 ± 0.03,potentiated IP1 accumulation
"Nb4: llama-derived CaSR-specific nanobody acting as PAM, SEQ ID NO:5 (protein, CaSR Nb4) VHH: QVQLVESGGGLVQAGGSLRLSCAASGRTFSTYRMGWFRQGLGKEREFVAAITANGVRTFYTDSVKGRFTISRDNAKNTLYLQMNSLQPDDTAVYLCAARRKGIFTVQQAQDITDWDYWGQGTQVTVSS",leftward shift,,,3.74 ± 0.08,,7.08 ± 0.13,potentiated IP1 accumulation
